Test results from the supplement of paper PMC7877785.
± gives the uncertainty stated by the source.

Test: self-splicing fitness, log relative to wild type (ln ratio); higher = more splicing; Tetrahymena group I intron in knt gene, E. coli kanamycin selection, DiMSum; sequences stand for … in CUCUCU…GGAGGGAAAAGUUAUCAGGCAUGCACCUGGUAGCUAGUCUUUAAACCAAUAGAUUGCAUCGGUUUAAAAGGCAAGACCGUCAAAUUGCGGGAAAGGGGUCAACAGCCGUUCAGUACCAAGUCUCAGGGGAAACUUUGAGAUGGCCUUGCAAAGGGUAUGGUAAUAAGCUGACGGACAUGGUCCUAACCACGCAGCCAAGUCCUAAGUCAACAGAUCUUCUGUUGAUAUGGAUGCAGUUCACAGACUAAAUGUCGGUCGGGGAAGAUGUAUUCUUCUCAUAAGAUAUAGUCGGACCUCUCCUUAAUGGGAGCUAGCGGAUGAAGUGAUGCAACACUGGAGCCGCUGGGAACUAAUUUGUAUGCGAAAGUAUAUUGAUUAGUUUUGGAGUACUCGUGGUCG
Procedure, shortened: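 The eight P1ex-region nucleotides of an intron in the knt kanamycin-resistance gene on pET-22b(+) were all randomised and the library put into E. coli BL21(DE3). Six replicate transformations were grown overnight at 37°C or 30°C on LB agar with or without 25 μg/mL kanamycin, together with 100 μg/mL carbenicillin, 50 μM IPTG and 0.2% rhamnose. Colonies were pooled and amplicon-sequenced on an Illumina HiSeq 2500. Fitness from DiMSum is the error-weighted combination of wild-type-normalised replicate fold changes, kanamycin over none.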

Sequence | self-splicing fitness (ln) (30 °C) | self-splicing fitness (ln) (37 °C)
CGUAAGCAAUAUUACGUUGA | -3.23 ± 0.19 | -2.58 ± 0.18
UCGCAGCAAUAUUACGACAC | -1.67 ± 0.26 | -2.78 ± 0.41
AAAUAGCAAUAUUACGAUUA | 0.0855 ± 0.11 | 0.0228 ± 0.096
CACAAGCAAUAUUACGAUAG | -0.655 ± 0.046 | 0.242 ± 0.062
GUUCAGCAAUAUUACGAUGG | -3.81 ± 0.29 | -2.31 ± 0.25
AUCAAGCAAUAUUACGUGCU | -2.33 ± 0.088 | -1.7 ± 0.11
AGACAGCAAUAUUACGCAUU | -3.41 ± 0.12 | -1.45 ± 0.087
AGUCAGCAAUAUUACGAGGU | -3.4 ± 0.26 | -2.62 ± 0.24
AAAGAGCAAUAUUACGCUUG | -1.67 ± 0.13 | -1.19 ± 0.18
AUGGAGCAAUAUUACGGCCU | -1.32 ± 0.19 | -0.862 ± 0.24
AUGCAGCAAUAUUACGAUGU | -0.358 ± 0.061 | 0.146 ± 0.085
UCCAAGCAAUAUUACGGAAU | -3.72 ± 0.3 | -2.97 ± 0.33
CAGAAGCAAUAUUACGCUUG | -4.25 ± 0.16 | -2.99 ± 0.14
GAUGAGCAAUAUUACGGCUC | -0.914 ± 0.26 | -1.12 ± 0.32
UGAUAGCAAUAUUACGGUGC | -2.98 ± 0.35 | 
UUGAAGCAAUAUUACGGGGG | -2.59 ± 0.17 | -1.9 ± 0.19
UAGCAGCAAUAUUACGGCCU | -0.225 ± 0.093 | 0.118 ± 0.12
UCACAGCAAUAUUACGAAGC | -3.07 ± 0.21 | 
GUGCAGCAAUAUUACGUUAU | -1.84 ± 0.084 | -0.973 ± 0.098
AAUAAGCAAUAUUACGUUGA | -2.96 ± 0.22 | -2.62 ± 0.2
AUCAAGCAAUAUUACGGUUG | -3.05 ± 0.25 | -1.92 ± 0.19
ACAUAGCAAUAUUACGAUGA | -0.75 ± 0.072 | -0.575 ± 0.086
AAUAAGCAAUAUUACGAGCG | -1.5 ± 0.15 | -0.155 ± 0.17
AGAUAGCAAUAUUACGCGUU | -2.34 ± 0.14 | -0.0669 ± 0.13
UGACAGCAAUAUUACGACCG | 0.701 ± 0.16 | 0.698 ± 0.19

Sequence | self-splicing fitness (ln) (30 °C) | self-splicing fitness (ln) (37 °C)
AACGAGCAAUAUUACGGCGC | -2.14 ± 0.18 | -1.31 ± 0.16
GGUGAGCAAUAUUACGUUCG | -2.65 ± 0.37 | -2.44 ± 0.32
UGGUAGCAAUAUUACGACGG | -1.49 ± 0.11 | -0.695 ± 0.13
AGAAAGCAAUAUUACGCCUG | -0.436 ± 0.11 | -0.62 ± 0.14
CCGUAGCAAUAUUACGCGCG | -2.15 ± 0.17 | -0.999 ± 0.18
AACCAGCAAUAUUACGGGCG | -0.173 ± 0.068 | 0.356 ± 0.081
CAGUAGCAAUAUUACGUGGC | -2.97 ± 0.28 | -2.36 ± 0.29
AGGGAGCAAUAUUACGCUGG | -4.26 ± 0.37 | -1.67 ± 0.26
CCUAAGCAAUAUUACGUUUU | -3.89 ± 0.18 | -1.3 ± 0.13
UGCCAGCAAUAUUACGUUGC | -2.93 ± 0.17 | -2.93 ± 0.18
UGUUAGCAAUAUUACGAUAU | -2.45 ± 0.21 | -0.289 ± 0.25
CUGAAGCAAUAUUACGAUAU | -3.39 ± 0.16 | -1.27 ± 0.19
GACAAGCAAUAUUACGCCCU | -0.581 ± 0.14 | 0.33 ± 0.15
GAUUAGCAAUAUUACGGGGC | -3.62 ± 0.49 | -2.97 ± 0.3
UAGAAGCAAUAUUACGAGCG | -0.732 ± 0.096 | -0.815 ± 0.13
UUCGAGCAAUAUUACGUAUG | -2.17 ± 0.13 | -2.49 ± 0.19
CUUCAGCAAUAUUACGAUAU | -3.28 ± 0.22 | -1.73 ± 0.27
CGGUAGCAAUAUUACGCAUA | -4.37 ± 0.42 | -2.34 ± 0.26
UUGAAGCAAUAUUACGUUUU | -2.7 ± 0.2 | -2.52 ± 0.3
CAAGAGCAAUAUUACGAGCA | -2.85 ± 0.28 | -2.63 ± 0.38
CCAAAGCAAUAUUACGCGGG | -4.4 ± 0.42 | -1.38 ± 0.16
UGCUAGCAAUAUUACGGUGA | -1.42 ± 0.12 | -0.513 ± 0.13
UCCCAGCAAUAUUACGGAAG | -3.24 ± 0.12 | -2.88 ± 0.23
UCUUAGCAAUAUUACGGACU | -2.76 ± 0.34 | -0.0771 ± 0.26
AAUCAGCAAUAUUACGUUGU | -2.38 ± 0.1 | -1.68 ± 0.12

Sequence | self-splicing fitness (ln) (30 °C) | self-splicing fitness (ln) (37 °C)
AGACAGCAAUAUUACGGAAG | -4.03 ± 0.3 | -1.94 ± 0.18
GAGGAGCAAUAUUACGUCAU | -2.41 ± 0.39 | -2.26 ± 0.4
CAUAAGCAAUAUUACGGCUA | -1.56 ± 0.13 | -1.51 ± 0.12
CGCCAGCAAUAUUACGCCCA | -1.42 ± 0.18 | -0.853 ± 0.19
CAGAAGCAAUAUUACGCUAC | -0.828 ± 0.41 | 
AUUUAGCAAUAUUACGAAAU | -2 ± 0.31 | -1.54 ± 0.27
ACUUAGCAAUAUUACGCGAG | -1.93 ± 0.15 | -1.76 ± 0.13
GGCAAGCAAUAUUACGACAA | -0.0702 ± 0.12 | -0.492 ± 0.13
AUAUAGCAAUAUUACGUGAA | -1.57 ± 0.28 | -0.717 ± 0.33
AGGCAGCAAUAUUACGGCUU | -2.17 ± 0.12 | -1.83 ± 0.16
GCCAAGCAAUAUUACGGACA | -1.12 ± 0.11 | 0.31 ± 0.093
UUGGAGCAAUAUUACGUGCG | -1.73 ± 0.28 | -0.739 ± 0.21
GCUGAGCAAUAUUACGGUAC | -2.15 ± 0.22 | -2.77 ± 0.29
AACGAGCAAUAUUACGGUCA | -2.05 ± 0.21 | -1.12 ± 0.2
GAUAAGCAAUAUUACGGUGU | -2.61 ± 0.12 | -1.59 ± 0.11
CCGCAGCAAUAUUACGAAGU | -3.34 ± 0.31 | -2.5 ± 0.33
UCAGAGCAAUAUUACGCCCG | -2 ± 0.47 | 
UAGAAGCAAUAUUACGGCGG | -0.497 ± 0.099 | 0.388 ± 0.12
CGGCAGCAAUAUUACGCCUC | -3.4 ± 0.27 | -1.59 ± 0.25
ACAUAGCAAUAUUACGUUAG | -3.66 ± 0.17 | -1.66 ± 0.14
UGGUAGCAAUAUUACGAGGC | -2.16 ± 0.28 | -2.19 ± 0.28
CAAGAGCAAUAUUACGCGCG | -1.47 ± 0.093 | -0.891 ± 0.13
CUCUAGCAAUAUUACGCAUG | -4.85 ± 0.41 | -3.07 ± 0.3
CCUAAGCAAUAUUACGCACG | -3.1 ± 0.41 | -1.46 ± 0.23
CAACAGCAAUAUUACGCGGU | -2.36 ± 0.12 | -2.88 ± 0.28

Sequence | self-splicing fitness (ln) (30 °C) | self-splicing fitness (ln) (37 °C)
AAAGAGCAAUAUUACGUAAA | -3.11 ± 0.15 | -1.42 ± 0.13
GCCCAGCAAUAUUACGGAUG | -2.15 ± 0.075 | -1.49 ± 0.092
AAGAAGCAAUAUUACGAGAG | -4.49 ± 0.36 | -2.41 ± 0.2
CGAGAGCAAUAUUACGAGGG | -4.22 ± 0.31 | -3.16 ± 0.27
AGCCAGCAAUAUUACGUAAU | -1.71 ± 0.11 | -0.608 ± 0.12
UGUGAGCAAUAUUACGUAAU |  | -2.2 ± 0.27
AUCGAGCAAUAUUACGGCGA | -1.24 ± 0.18 | -0.629 ± 0.17
CGGUAGCAAUAUUACGAACC |  | -1.2 ± 0.31
UGAUAGCAAUAUUACGAGUA | -1.71 ± 0.16 | -1.23 ± 0.13
AUUAAGCAAUAUUACGAGCU | -0.659 ± 0.14 | -0.821 ± 0.2
UUUUAGCAAUAUUACGUACA | -2.16 ± 0.15 | -0.143 ± 0.2
UACAAGCAAUAUUACGAAUA | -1.56 ± 0.087 | -0.567 ± 0.1
GGGUAGCAAUAUUACGAUCA | -0.0146 ± 0.13 | 0.0752 ± 0.16
CGCGAGCAAUAUUACGGAAA | -2.72 ± 0.26 | -2.24 ± 0.3
GGCGAGCAAUAUUACGUCCG | -3.67 ± 0.35 | -2.39 ± 0.32
UUGCAGCAAUAUUACGAAUA | -1.66 ± 0.1 | -0.197 ± 0.13
GAUGAGCAAUAUUACGUUUC | -2.77 ± 0.31 | -2.57 ± 0.29
UGCCAGCAAUAUUACGGUAG | -1.89 ± 0.12 | -0.428 ± 0.11
GUUAAGCAAUAUUACGAUCU | -0.419 ± 0.087 | -0.373 ± 0.11
CGCCAGCAAUAUUACGCCUC | -3.25 ± 0.32 | -0.661 ± 0.29
ACAGAGCAAUAUUACGCAGC |  | -2.25 ± 0.33
UAUUAGCAAUAUUACGAAGG | -2.18 ± 0.22 | -0.523 ± 0.17
